Legend:
PK by Activity = experiment: PK by Activity
Protocol: Table printed on a drawing sheet, FIG. 3D-F
(§1) Circles: IV injection of 1 mg/kg, squares: subcutaneous injection of 1 mg/kg. Pharmacokinetic parameters Cmax, bioavailability (F %) and half-life T1/2 are compared in panel C.
(§2) Circles: IV injection of 1 mg/kg, squares: subcutaneous injection of 1 mg/kg. Pharmacokinetic parameters Cmax, bioavailability (F %) and half life T112 are compared in panel F.
First reader's note: Panel F of FIG. 3D-F; the pharmacokinetic parameters were derived from plasma levels measured by activity (sheet heading 'PK by Activity').

PK by Fc Detection = experiment: PK by Fc Detection
Protocol: Table printed on a drawing sheet, FIG. 3A-C
Title: PK by Fc Detection
as §1, §2
First reader's note: Panel C of FIG. 3A-C; the title 'PK by Fc Detection' is printed over the whole sheet, including plot panels A and B.

[1] = molecular target: T1, mouse GIP receptor (mGIPr) (Mus musculus, UniProt Q0P543); experiment: BSA-cAMP assay, cells expressing mouse GIP receptor; assay type: cell-based; settings: Batch 1; BSA-cAMP assay; read-out: mGIPr cAMP activity EC50
T1 construct: expressed in transfected cells; host or cells: HEK293s or CHO cells
T1 sequence (Q0P543 19-460): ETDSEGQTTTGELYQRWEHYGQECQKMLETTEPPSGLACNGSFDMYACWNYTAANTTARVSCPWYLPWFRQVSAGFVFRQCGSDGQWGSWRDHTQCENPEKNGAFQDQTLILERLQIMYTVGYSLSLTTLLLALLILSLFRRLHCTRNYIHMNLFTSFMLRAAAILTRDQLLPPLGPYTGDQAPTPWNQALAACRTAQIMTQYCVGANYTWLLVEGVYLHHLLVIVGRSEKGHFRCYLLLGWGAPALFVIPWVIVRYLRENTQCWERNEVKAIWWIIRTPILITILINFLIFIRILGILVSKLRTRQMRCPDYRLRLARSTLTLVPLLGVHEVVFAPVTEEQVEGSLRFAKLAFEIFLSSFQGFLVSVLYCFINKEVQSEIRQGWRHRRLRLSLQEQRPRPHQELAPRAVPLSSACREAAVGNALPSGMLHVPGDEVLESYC
Protocol: (§3) One basic cAMP assays was performed, differing in the medium used for the assay, the “BSA-cAMP assay”:
(§4) BSA-based assay medium: 0.1% bovine serum albumin (BSA) in
(§5) In certain aspects, the assay can also be carried out in medium supplemented with serum albumin that corresponds to the receptor being tested, e.g., human serum albumin for testing cAMP activity at hGIPr or hGLP-1r, rat serum albumin for testing cAMP activity at rGIPr or rGLP-1r, and so on. […] All sample dilutions were made in duplicate.
(§6) A frozen cryo-vial of cells expressing the receptor of interest was thawed rapidly in a water-bath, transferred to pre-warmed assay media and spun at 240×g for 5 minutes. Cells were re-suspended in assay buffer at an optimized concentration (e.g., hGLP-1r and hGIPr cells at 0.5×10^5 cells/ml).
(§7) To this, 5 μL cell suspension was added and the plates incubated at room temperature for 30 minutes.
(§8) cAMP levels were measured using a commercially available cAMP dynamic 2 HTRF kit (Cisbio, Cat #62AM4PEJ), following the two step protocol as per manufacturer's recommendations. In brief; anti-cAMP cryptate (donor fluorophore) and cAMP-d2 (acceptor fluorophore) were made up separately by diluting each 1/20 in conjugate & lysis buffer provided in the kit. 5 μL anti-cAMP cryptate was added to all wells of the assay plate, and 5 μL cAMP-d2 added to all wells except non-specific binding (NSB) wells, to which conjugate and lysis buffer was added. […] Data was transformed to % Delta F as described in manufacturer's guidelines and then transformed to percent activation of maximal native agonist response and analysed by 4-parameter logistic fit to determine EC50 values.
(§9) We used unconstrained 4 parameter logistic fit of data, curve mid-point to determine EC50. This was tested on two occasions, not two batches.
(§10) In order to be able to carry out in vivo studies in rodents, IP088 was tested for potency against the mouse receptors mGIPr and mGLP-1r as well as the rat receptors rGIPr and rGLP-1r, using cells expressing the respective receptors in the cAMP assay described above.

[2] = molecular target: T2, human GIP receptor (hGIPr) (Homo sapiens, UniProt P48546); experiment: BSA-cAMP assay, cells expressing human GIP receptor; assay type: cell-based; settings: Batch 1; BSA-cAMP assay; read-out: hGIPr cAMP activity EC50
T2 construct: expressed in transfected cells
T2 sequence (P48546 22-466): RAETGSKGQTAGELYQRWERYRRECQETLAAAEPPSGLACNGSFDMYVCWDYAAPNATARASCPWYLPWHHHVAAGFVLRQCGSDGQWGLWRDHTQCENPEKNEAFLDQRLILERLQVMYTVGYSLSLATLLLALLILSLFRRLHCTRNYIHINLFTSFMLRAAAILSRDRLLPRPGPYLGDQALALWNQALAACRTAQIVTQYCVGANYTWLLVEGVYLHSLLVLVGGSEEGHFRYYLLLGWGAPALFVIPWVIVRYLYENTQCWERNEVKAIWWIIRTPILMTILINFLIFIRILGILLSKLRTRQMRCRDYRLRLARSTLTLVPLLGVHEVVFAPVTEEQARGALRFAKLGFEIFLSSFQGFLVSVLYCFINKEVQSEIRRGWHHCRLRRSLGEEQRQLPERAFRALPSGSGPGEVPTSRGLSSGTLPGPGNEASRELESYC
Protocol: For human GIPr, two different lines were used, shown as “hGIPr” and “hGIPr (C3)” in Table 11.
as §3, §4, §5, §6, §7, §8, §9

rat GIP receptor (rGIPr) = molecular target: T3, rat GIP receptor (rGIPr) (Rattus norvegicus, UniProt P43219); experiment: BSA-cAMP assay, cells expressing rat GIP receptor; assay type: cell-based; settings: Batch 1; BSA-cAMP assay; read-out: rGIPr cAMP activity EC50
T3 construct: expressed in transfected cells; host or cells: HEK293s or CHO cells
T3 sequence (P43219 19-455): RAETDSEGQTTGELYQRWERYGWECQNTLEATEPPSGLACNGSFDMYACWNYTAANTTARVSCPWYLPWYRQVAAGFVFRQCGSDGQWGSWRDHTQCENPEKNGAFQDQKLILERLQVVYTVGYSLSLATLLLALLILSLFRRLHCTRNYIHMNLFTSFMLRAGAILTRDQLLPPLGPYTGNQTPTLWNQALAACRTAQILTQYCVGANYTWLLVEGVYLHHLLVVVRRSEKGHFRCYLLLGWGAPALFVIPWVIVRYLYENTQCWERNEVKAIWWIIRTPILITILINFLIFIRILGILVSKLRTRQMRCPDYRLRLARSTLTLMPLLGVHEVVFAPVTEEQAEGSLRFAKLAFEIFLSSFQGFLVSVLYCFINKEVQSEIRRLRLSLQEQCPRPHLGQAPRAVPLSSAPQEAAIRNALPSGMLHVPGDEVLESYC
Protocol: as §3, §4, §5, §6, §7, §8, §9, §10

[3] = molecular target: T4, human glucagon receptor (GCGr) (Homo sapiens, UniProt P47871); experiment: BSA-cAMP assay, cells expressing human glucagon receptor; assay type: cell-based; settings: Batch 1, read-out: hGCGr cAMP activity EC50
T4 construct: expressed in transfected cells; host or cells: HEK293s or CHO cells
T4 sequence (P47871 26-477): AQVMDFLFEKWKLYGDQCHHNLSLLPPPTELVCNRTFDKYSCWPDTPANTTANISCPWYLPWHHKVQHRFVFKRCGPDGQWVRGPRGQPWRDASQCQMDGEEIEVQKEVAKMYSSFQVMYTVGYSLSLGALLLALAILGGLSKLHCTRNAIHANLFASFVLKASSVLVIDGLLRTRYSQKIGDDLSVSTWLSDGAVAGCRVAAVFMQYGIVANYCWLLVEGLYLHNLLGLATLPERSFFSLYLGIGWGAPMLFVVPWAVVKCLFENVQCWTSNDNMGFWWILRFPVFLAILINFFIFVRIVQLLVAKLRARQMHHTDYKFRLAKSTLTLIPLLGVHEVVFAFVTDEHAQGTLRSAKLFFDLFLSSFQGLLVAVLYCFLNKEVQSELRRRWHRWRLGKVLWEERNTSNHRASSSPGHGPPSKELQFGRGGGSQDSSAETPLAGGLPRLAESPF
Protocol: as §3, §4, §5, §6, §7, §8, §9

[4] = molecular target: T5, human GLP-1 receptor (hGLP-1r) (Homo sapiens, UniProt P43220); experiment: BSA-cAMP assay, cells expressing human GLP-1 receptor; assay type: cell-based; settings: Batch 1; BSA-cAMP assay; read-out: hGLP1r cAMP activity EC50
T5 construct: expressed in transfected cells
T5 sequence (P43220 24-463): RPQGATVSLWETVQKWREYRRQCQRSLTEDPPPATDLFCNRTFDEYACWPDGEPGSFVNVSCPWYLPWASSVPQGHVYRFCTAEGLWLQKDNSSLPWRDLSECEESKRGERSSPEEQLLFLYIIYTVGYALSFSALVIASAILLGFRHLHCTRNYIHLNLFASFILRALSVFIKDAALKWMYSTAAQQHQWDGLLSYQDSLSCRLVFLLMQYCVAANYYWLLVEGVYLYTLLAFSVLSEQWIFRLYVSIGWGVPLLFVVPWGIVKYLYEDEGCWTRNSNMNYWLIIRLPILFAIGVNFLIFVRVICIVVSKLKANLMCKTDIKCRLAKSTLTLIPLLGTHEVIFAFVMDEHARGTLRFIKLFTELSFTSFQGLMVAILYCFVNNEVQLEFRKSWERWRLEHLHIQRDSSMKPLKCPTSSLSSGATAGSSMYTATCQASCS
Protocol: as §3, §4, §5, §6, §7, §8, §9

[5] = molecular target: T6, mouse GLP-1 receptor (mGLP-1r) (Mus musculus, UniProt O35659); experiment: BSA-cAMP assay, cells expressing mouse GLP-1 receptor; assay type: cell-based; settings: Batch 1; BSA-cAMP assay; read-out: mGLP1r cAMP activity EC50
T6 construct: expressed in transfected cells; host or cells: HEK293s or CHO cells
T6 sequence (O35659 22-463): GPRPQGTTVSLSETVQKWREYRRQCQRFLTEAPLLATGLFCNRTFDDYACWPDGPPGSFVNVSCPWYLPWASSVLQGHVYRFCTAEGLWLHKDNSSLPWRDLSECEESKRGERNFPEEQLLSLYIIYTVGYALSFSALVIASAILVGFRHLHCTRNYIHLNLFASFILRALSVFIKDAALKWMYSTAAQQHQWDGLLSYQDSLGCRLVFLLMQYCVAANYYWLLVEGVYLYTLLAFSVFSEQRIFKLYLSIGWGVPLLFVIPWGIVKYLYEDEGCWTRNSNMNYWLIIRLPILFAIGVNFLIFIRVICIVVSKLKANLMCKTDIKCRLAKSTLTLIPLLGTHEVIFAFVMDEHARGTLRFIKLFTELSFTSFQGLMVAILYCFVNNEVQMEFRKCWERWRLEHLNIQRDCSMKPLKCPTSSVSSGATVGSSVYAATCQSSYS
Protocol: as §3, §4, §5, §6, §7, §8, §9, §10

[6] = molecular target: T7, rat GLP-1 receptor (rGLP-1r) (Rattus norvegicus, UniProt P32301); experiment: BSA-cAMP assay, cells expressing rat GLP-1 receptor; assay type: cell-based; settings: Batch 1; BSA-cAMP assay; read-out: rGLP1r cAMP activity EC50
T7 construct: expressed in transfected cells; host or cells: HEK293s or CHO cells
T7 sequence (P32301 22-463): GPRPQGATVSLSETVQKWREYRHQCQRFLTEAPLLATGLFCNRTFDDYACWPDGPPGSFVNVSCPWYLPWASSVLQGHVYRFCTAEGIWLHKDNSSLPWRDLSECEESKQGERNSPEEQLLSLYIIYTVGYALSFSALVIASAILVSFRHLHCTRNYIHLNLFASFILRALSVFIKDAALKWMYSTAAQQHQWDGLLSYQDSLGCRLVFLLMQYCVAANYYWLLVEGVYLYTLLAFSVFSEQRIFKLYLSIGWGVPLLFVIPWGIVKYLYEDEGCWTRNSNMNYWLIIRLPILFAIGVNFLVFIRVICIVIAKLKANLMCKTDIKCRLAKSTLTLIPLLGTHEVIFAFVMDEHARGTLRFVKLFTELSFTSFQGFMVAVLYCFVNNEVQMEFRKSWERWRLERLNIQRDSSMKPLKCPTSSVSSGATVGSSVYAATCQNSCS
Protocol: as §3, §4, §5, §6, §7, §8, §9, §10

Substance | EC50 [1] | EC50 [2] | EC50 (rat GIP receptor (rGIPr)) | EC50 [3] | EC50 [4] | EC50 [5] | EC50 [6] | Cmax (PK by Activity) | F (%) (PK by Activity) | t½ (PK by Activity) | Cmax (PK by Fc Detection) | F (%) (PK by Fc Detection) | t½ (PK by Fc Detection)
GLP-1a-Fc (HGEGTFTSDVSSYLEEQAAKEFIAWLVKGR; /note=“Description of Artificial Sequence Synthetic GLP-1 Analog polypeptide”) |  |  |  |  |  |  |  | 24 nM | 93% | 30 h | 8500 ng/mL | 59% | 79 h
IP359: Fc fusion, IgG1-TM, SEQ ID NO:366; agonist peptide YSEGTFTSDYSKLLEEEAVRLFIEHLLAGG (YSEGTFTSDYSKLLEEEAVRLFIEHLLAGGGGGGSGGGGSGGGGSGGGGSATHTCPPC) | 8.3 nM | 0.011 nM | 0.039 nM | 43 nM | 0.061 nM | 0.2 nM | 0.04 nM |  |  |  |  |  | 
IP380: Fc fusion, IgG1-fusion, SEQ ID NO:376; agonist peptide YSEGTFTSDYSKLLEEEAVRLFIEFLLAGG (YSEGTFTSDYSKLLEEEAVRLFIEFLLAGGGGGGSGGGGSGGGGSGGGGSATHTCPPC) | 6.6 nM | 0.0084 nM | 0.06 nM | 25 nM | 0.11 nM | 1.2 nM | 0.031 nM |  |  |  |  |  | 
IP385 (YSEGTFTSDYSIYLDRQAIDEFIAWLLKGGGGGGGSGGGGSGGGGSGGGGSACPPC) | 18 nM | 0.012 nM | 1.1 nM | > 1560 nM | 0.47 nM | 30 nM | 0.16 nM |  |  |  |  |  | 

More lines, in order of falling EC50 [1], values ahead:

EC50 [1] | EC50 [2] | EC50 (rat GIP receptor (rGIPr)) | EC50 [3] | EC50 [4] | EC50 [5] | EC50 [6] | Substance | Cmax (PK by Activity) | F (%) (PK by Activity) | t½ (PK by Activity) | Cmax (PK by Fc Detection) | F (%) (PK by Fc Detection) | t½ (PK by Fc Detection)
5.4 nM | 0.0099 nM | 0.045 nM | 18 nM | 0.091 nM | 0.73 nM | 0.027 nM | IP381: Fc fusion, IgG1-fusion, SEQ ID NO:377; agonist peptide YSEGTFTSDYSKLLEEEAVRLFIEYLLAGG (YSEGTFTSDYSKLLEEEAVRLFIEYLLAGGGGGGSGGGGSGGGGSGGGGSATHTCPPC) |  |  |  |  |  | 
3.3 nM | 0.012 nM | 0.063 nM | 380 nM | 0.12 nM | 3.8 nM | 0.016 nM | IP395 (YSEGTFTSDYSKLLERQAIDEFIAHLLKGGGGGGGSGGGGSGGGGSGGGGSACPPC) |  |  |  |  |  | 
1.3 nM | 0.2 nM | 0.22 nM | > 4860 nM | 230 nM | > 4860 nM | 370 nM | IP368 (YSEGTFTSDYRQAIDRQAIDEFIAWLLKGGGGGGGSGGGGSGGGGSGGGGSACPPC) |  |  |  |  |  | 
0.03 nM | 0.0034 nM | 0.0085 nM | 540 nM | > 9130 nM | > 16600 nM | > 16600 nM | IP386 (YSEGTFISDYSIAMDKIHQQDFVNWLLAQKGGGGGSGGGGSGGGGSGGGGSACPPC) |  |  |  |  |  | 

Source: US20160185837A1 (Medimmune Limited, priority 2013, published 2016)
